Assay results published in patent US20220031857A1 (OSSIANIX, published 2022).

T1: recombinant mouse TfR2 (mouse, UniProt Q9JKX3 103-798, limits assumed)
T1 construct: Negative control protein
T1 sequence (looked up): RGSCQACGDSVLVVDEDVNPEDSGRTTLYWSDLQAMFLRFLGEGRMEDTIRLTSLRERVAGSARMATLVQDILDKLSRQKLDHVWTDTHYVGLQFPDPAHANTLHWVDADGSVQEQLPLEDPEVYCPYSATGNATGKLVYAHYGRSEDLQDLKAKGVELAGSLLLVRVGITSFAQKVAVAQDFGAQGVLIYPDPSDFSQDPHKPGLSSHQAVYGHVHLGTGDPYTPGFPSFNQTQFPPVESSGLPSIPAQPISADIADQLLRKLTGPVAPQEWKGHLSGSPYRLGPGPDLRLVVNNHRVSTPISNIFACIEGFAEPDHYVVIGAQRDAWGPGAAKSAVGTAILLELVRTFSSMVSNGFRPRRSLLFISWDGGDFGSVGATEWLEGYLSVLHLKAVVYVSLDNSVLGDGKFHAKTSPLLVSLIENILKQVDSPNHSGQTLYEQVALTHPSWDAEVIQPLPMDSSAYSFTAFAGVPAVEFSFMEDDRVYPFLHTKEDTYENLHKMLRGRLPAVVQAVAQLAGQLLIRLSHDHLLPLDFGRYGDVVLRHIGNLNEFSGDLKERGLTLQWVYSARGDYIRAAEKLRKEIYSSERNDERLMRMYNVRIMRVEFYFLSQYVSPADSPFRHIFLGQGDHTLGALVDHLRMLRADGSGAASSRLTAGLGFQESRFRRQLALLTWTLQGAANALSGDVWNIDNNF

B1: SEQ ID NO 46 (VNAR clone displayed on phage) (VNAR)
VNAR: ARVDQTPRSVTKETGESLTINCVLRDASYALGSTCWYRKKSGSTNEESISKGGRYVETVNSGSKSFSLRINDLTVEDGGTYRCGVCSDYGLQTTGQQAACGDGTAVTVNA
notes: shark VNAR domain on M13 phage; coat-protein fusion not described
B2: SEQ ID NO 42 (VNAR clone displayed on phage) (VNAR)
VNAR: ARVDQTPRSVTKETGESLTINCVLRDASYALGSTCWYRKKSGSTNEESISKGGRYVETVNSGSKSFSLRINDLTVEDGGTYRCGVCEMQLIAVDSCDHTLDDGLCGGVYAACGDGTAVTVNA
notes: as for B1
B3: SEQ ID NO 50 (VNAR clone displayed on phage) (VNAR)
VNAR: ARVDQTPRSVTKETGESLTINCVLRDASYALGSTCWYRKKSGSTNEESISKGGRYVETVNSGSKSFSLRINDLTVEDGGTYRCGVMNNVSQTWVRCDSQVMSQQCVQQSAACGDGTAVTVNA
notes: as for B1
B4: SEQ ID NO 3 (VNAR clone displayed on phage) (VNAR)
VNAR: ARVDQTPQTITKETGESLTINCVLRDNNCALSTTYWYRKKSGSTNEENISKGGRYVETVNSGSKSFSLKINDLTVEDSGTYRCNVTGYFRSTCLWRDVYGGGTAVTVNA
notes: as for B1
B5: SEQ ID NO 6 (VNAR clone displayed on phage) (VNAR)
VNAR: ARVDQTPQTITKETGESLTINCVLRDSNCALSSTYWYRKKSDSTNEESISKGGRYVETVNSGSKSFSLRINDLTVEDSGTYRCNVQWWLRCGYFKDVYGGGTVVTVNA
notes: as for B1
B6: SEQ ID NO 1 (VNAR clone displayed on phage) (VNAR)
VNAR: ARVDQTPQTITKETGESLTINCVLRDNNCALSTTYWYRKKSGSTNEENISKGGRYVETVNSGSKSFSLKINDLTVEDSGTYRCNVRDVQACGNDWVWLDVYGGGTVVTVNA
notes: shark VNAR domain on M13 phage; coat-protein fusion not described; also called clone 1
B7: SEQ ID NO 43 (VNAR clone displayed on phage) (VNAR)
VNAR: ARVDQTPRSVTKETGESLTINCVLRDASYALGSTCWYRKKSGSTNEESISKGGRYVETVNSGSKSFSLRINDLTVEDGGTYRCGVYGGTHQGLCGCDWQLRFSLCGDGRAACGDGTAVTVNA
notes: as for B1
B8: SEQ ID NO 44 (VNAR clone displayed on phage) (VNAR)
VNAR: ARVDQTPRSVTKETGESLTINCVLRDASYALGSTCWYRKKSGSTNEESISKGGRYVETVNSGSKSFSLRINDLTVEDGGTYRCGVCQCWSANVWVDCDMTSTSIRMRDGSRSNARAACGDGTAVTVNA
notes: as for B1
B9: SEQ ID NO 10 (VNAR clone displayed on phage) (VNAR)
VNAR: ARVDQTPQTITKETGESLTINCVLRDSNCALSSTYWYRKKSGSTNEENISKGGRYVETVNSGSKSFSLRINDLTVEDSGTYRCNVVQYPSYNNYFWCDVYGDGTAVTVNA
notes: shark VNAR domain on M13 phage; coat-protein fusion not described; also called clone 10
B10: SEQ ID NO 9 (VNAR clone displayed on phage) (VNAR)
chain: ARVDQTPQTITKETGESLTINCVLRDSNCALPSTYWYRKKSGSTNEARISKGGRYVETVNSGSKSFSLRINDLTVEDSGTIDARYRLSASAVLYQSYVDVYGGGTAVTVNA
notes: as for B1
B11: SEQ ID NO 51 (VNAR clone displayed on phage) (VNAR)
VNAR: ARVDQTPRSVTKETGESLTINCVLRDASYALGSTCWYRKKSGSTNEESISKGGRYVETVNSGSKSFSLRINDLTVEDSGTYRCNVIQYLYLGSYFACDVYGGGTVVTVNA
notes: as for B1
B12: SEQ ID NO 5 (VNAR clone displayed on phage) (VNAR)
VNAR: ARVDQTPQTITKETGESLTINCVLRDSNCALSSTYWYRKKSGSTNEENISKGGRYVETVNSGSKSFSLKINDLTVEDSGTYRCNVQKGQHLQCHVAVQDVYGGGTAVTVNA
notes: as for B1
B13: SEQ ID NO 48 (VNAR clone displayed on phage) (VNAR)
VNAR: ARVDQTPRSVTKETGESLTINCVLRDASYELGSTCWYRKKSGSTNEESISKGGRYVETVNSGSKSFSLRINDLTVEDGGTYRCGASLQCGNCELCDREQLQCGGQRGQLAACGDGTAVTVNA
notes: as for B1
B14: SEQ ID NO 12 (VNAR clone displayed on phage) (VNAR)
VNAR: ARVDQTPQTITKETGESLTINCVLRDSICALSSTHWYRKKSGSTNEESISKGGRYVETVNSGSKSFSLRINDLTVEDSGTYRCKVVRSGVGPCWADVYGGGTAVTVNA
notes: shark VNAR domain on M13 phage; coat-protein fusion not described; also called clone 12
B15: SEQ ID NO 45 (VNAR clone displayed on phage) (VNAR)
VNAR: ARVDQTPRSVTKETGESLTINCVLRDASYALGSTCWYRKKSGSTNEESISKGGRYVETVNSGSKSFSLRINDLTVEDGGTYRCGVCESSFCSLPYDCDSSSAGSVIQPFGHIVSLAACGDGTAVTVNA
notes: as for B1
B16: SEQ ID NO 4 (VNAR clone displayed on phage) (VNAR)
VNAR: ARVDQTPQTITKETGESLTINCVLRDSNCALSSTYWYRKKSGSTNEENISKGGRYVETVNSGSKSFSLKINDLTVEDSGTYRCNVQFTAALWCEAVLDVYGGGTVVTVNA
notes: as for B1
B17: SEQ ID NO 39 (VNAR clone displayed on phage) (VNAR)
chain: ARVDQTPQTITKETGESLTINCVLRDSNCALSSTLWYRTKSGSRNEESISKGGRYVETVNSGSKSFSLKINDLTVEDSGTYRCNVQGMVYDGSSFWWCDVYGDSTAVTVNA
notes: shark VNAR domain on M13 phage; coat-protein fusion not described; also called clone 39
B18: SEQ ID NO 8 (VNAR clone displayed on phage) (VNAR)
VNAR: ARVDQTPQTITKETGESLTINCVLRDSNCELSSTYWYRKKSGSTNEARISKGGRYVETVNSGSKSFSLRINDLTVEDSGTYRCNVQYFLCHFVGDVYGDGTAVTVNA
notes: as for B1
B19: SEQ ID NO 7 (VNAR clone displayed on phage) (VNAR)
VNAR: ARVDQTPQTITKETGESLTINCVLRDSNCELSSTYWYRKKSGSTNEARISKGGRYVETVNSGSKSFSLKINDLTVEDSGTYRCNVLTTDSYDLGDVYGDGTVVTVNA
notes: shark VNAR domain on M13 phage; coat-protein fusion not described; also called clone 7
B20: SEQ ID NO 2 (VNAR clone displayed on phage) (VNAR)
VNAR: ARVDQTPQTITKETGESLTINCVLRDNNCALSTTYWYRKKSGSTNEENISKGGRYVETVNSGSKSFSLKINDLTVEDSGTYRCNVFGVDNGWWCDVYGGGTVVTVNA
notes: shark VNAR domain on M13 phage; coat-protein fusion not described; also called clone 2
B21: SEQ ID NO 11 (VNAR clone displayed on phage) (VNAR)
VNAR: ARVDQTPQTITKETGESLTINCVLRDSNCALPSTHWYRKKSGSTNEESISKGGRYVETVNSGSKSFSLRINDLTVEDSGTYRCKVLNFFTHTCVQVQKYDVYGGGTAVTVNA
notes: shark VNAR domain on M13 phage; coat-protein fusion not described; also called clone 11
B22: SEQ ID NO 47 (VNAR clone displayed on phage) (VNAR)
VNAR: ARVDQTPRSVTKETGESLTINCVLRDASYALGSTCWYRKKSGSTNEESISKGGRYVETVNSGSKSFSLRINDLTVEDGGTYRCGAAIQGFWAGRCDNLPGKCVMQVSNAAACGDGTAVTVNA
notes: as for B1
B23: SEQ ID NO 49 (VNAR clone displayed on phage) (VNAR)
VNAR: ARVDQTPRSVTKETGESLTINCVLRDASYELGSTCWYRKKSGSTNEESISKGGRYVETVNSGSKSFSLRINDLTVEDGGTYRCGVISQYKSYTLWCDALYRSLGCECARAACGDGTAVTVNA
notes: as for B1

Assays:
Test in all cases: phage ELISA
recombinant mouse TfR2 = biological target: T1, recombinant mouse TfR2
human serum albumin = biological target: T2, human serum albumin (human, UniProt P02768 25-609)
T2 construct: Negative control protein; also called HSA

[1] = biological target: T3, recombinant human TfR1 (transferrin receptor 1) (human, UniProt P02786 89-760)
T3 construct: Bought recombinant His-tagged protein; also called hTfR1

[2] = biological target: T4, recombinant mouse TfR1 (transferrin receptor 1) (mouse, UniProt Q62351 89-763)
T4 construct: Bought recombinant His-tagged protein; also called mTfR1
T4 sequence (Q62351 89-763 limits assumed): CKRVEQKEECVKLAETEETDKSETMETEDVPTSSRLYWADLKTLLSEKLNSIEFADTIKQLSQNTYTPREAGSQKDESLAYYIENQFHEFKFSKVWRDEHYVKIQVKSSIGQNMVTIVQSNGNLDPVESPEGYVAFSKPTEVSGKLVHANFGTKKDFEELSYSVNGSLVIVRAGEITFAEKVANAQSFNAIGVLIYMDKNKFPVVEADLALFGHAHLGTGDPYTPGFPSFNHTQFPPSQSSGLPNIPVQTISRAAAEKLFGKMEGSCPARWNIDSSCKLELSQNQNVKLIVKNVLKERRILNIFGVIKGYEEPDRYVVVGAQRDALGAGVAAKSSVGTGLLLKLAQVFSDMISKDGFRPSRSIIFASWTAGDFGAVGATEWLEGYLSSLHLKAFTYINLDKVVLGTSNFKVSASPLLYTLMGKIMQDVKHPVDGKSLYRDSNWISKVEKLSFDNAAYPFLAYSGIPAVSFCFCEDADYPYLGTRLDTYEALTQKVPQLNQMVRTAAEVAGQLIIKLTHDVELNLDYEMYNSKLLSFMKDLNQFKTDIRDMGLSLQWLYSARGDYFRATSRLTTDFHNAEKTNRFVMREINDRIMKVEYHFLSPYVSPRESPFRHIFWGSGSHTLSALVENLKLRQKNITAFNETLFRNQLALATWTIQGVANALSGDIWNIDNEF

T2 sequence (P02768 25-609 limits assumed): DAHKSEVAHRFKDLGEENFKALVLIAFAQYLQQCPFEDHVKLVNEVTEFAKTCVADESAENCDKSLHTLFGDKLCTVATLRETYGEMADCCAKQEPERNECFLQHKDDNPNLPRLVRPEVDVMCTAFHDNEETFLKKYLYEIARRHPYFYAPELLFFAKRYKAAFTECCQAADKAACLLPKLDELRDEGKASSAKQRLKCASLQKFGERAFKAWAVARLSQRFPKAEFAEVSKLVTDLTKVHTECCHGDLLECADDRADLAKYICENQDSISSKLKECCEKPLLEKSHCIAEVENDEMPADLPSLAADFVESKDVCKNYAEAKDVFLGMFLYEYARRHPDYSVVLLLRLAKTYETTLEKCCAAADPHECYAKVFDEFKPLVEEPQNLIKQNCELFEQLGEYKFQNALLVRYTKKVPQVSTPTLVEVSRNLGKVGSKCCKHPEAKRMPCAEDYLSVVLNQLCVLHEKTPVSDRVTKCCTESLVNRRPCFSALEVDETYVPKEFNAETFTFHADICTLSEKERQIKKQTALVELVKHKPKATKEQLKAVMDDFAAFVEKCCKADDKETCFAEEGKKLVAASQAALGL
T3 sequence (P02786 89-760 limits assumed): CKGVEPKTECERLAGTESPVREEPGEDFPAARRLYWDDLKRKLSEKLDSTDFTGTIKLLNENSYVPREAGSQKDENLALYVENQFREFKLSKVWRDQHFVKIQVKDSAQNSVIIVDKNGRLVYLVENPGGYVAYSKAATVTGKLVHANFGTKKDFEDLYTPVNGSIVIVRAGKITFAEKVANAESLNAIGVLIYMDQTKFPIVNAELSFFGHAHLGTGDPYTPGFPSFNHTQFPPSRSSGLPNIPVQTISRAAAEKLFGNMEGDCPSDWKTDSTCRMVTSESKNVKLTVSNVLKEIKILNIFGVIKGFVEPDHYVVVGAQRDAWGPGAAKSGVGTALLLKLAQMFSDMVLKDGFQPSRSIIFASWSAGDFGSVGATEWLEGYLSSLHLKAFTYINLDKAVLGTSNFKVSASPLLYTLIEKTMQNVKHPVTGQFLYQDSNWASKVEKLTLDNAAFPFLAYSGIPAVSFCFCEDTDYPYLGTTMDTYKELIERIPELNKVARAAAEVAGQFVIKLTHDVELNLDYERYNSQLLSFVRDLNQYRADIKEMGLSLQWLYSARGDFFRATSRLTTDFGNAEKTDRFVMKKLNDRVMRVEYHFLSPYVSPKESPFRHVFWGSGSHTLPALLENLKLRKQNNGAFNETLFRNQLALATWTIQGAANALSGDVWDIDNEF

Binder	binding result (recombinant mouse TfR2)	binding result (human serum albumin)	binding result [1]	binding result [2]
B1	no binding	no binding	–	–
B2	no binding	no binding	binds	binds
B3	no binding	no binding	binds	binds
B4	–	no binding	binds	binds
B5	–	no binding	binds	binds
B6	no binding	no binding	–	–
B7	no binding	no binding	binds	binds
B8	no binding	no binding	binds	binds
B9	no binding	no binding	–	–
B10	–	no binding	binds	binds
B11	no binding	no binding	binds	binds
B12	–	no binding	binds	binds
B13	no binding	no binding	binds	binds
B14	no binding	no binding	–	–
B15	no binding	no binding	binds	binds
B16	–	no binding	binds	binds
B17	no binding	no binding	–	–
B18	–	no binding	binds	binds
B19	no binding	no binding	–	–
B20	no binding	no binding	–	–
B21	no binding	no binding	binds	–
B22	no binding	no binding	binds	binds
B23	no binding	no binding	binds	binds
